These results are taken from patent US20220363757A1.

Test in all cases: SPR, Fab over captured mutant LAG-3-Fc
For experiment [1], the target named is human LAG-3 domain 1-2 Fc fusion, chimeric construct #21 (mutated region AA 128-137) (human) (UniProt P18627).
Experiment [2] concerns the target human LAG-3 domain 1-2 Fc fusion, point mutation #72 S133A (human) (UniProt P18627).
Experiment [3] concerns the target human LAG-3 domain 1-2 Fc fusion, point mutation #24 G77A (human) (UniProt P18627).
Experiment [4] concerns the target human LAG-3 domain 1-2 Fc fusion, point mutation #9 D52A (human) (UniProt P18627).

Sequence of human LAG-3 domain 1-2 Fc fusion, point mutation #24 G77A (human) (P18627 23-266 G77A): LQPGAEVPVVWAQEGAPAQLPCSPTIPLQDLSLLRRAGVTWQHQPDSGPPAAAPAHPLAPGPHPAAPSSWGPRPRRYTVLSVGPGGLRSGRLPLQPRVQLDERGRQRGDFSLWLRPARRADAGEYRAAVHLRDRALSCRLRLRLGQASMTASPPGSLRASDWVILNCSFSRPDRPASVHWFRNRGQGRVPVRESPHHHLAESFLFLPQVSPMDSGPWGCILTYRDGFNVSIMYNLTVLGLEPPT
Sequence of human LAG-3 domain 1-2 Fc fusion, chimeric construct #21 (mutated region AA 128-137) (human) (P18627 23-266, stated change not applied): as the sequence (P18627 23-266 G77A) above, with A55G counted along it
Sequence of human LAG-3 domain 1-2 Fc fusion, point mutation #72 S133A (human) (P18627 23-266 S133A): as the sequence (P18627 23-266 G77A) above, with A55G, S111A counted along it
Sequence of human LAG-3 domain 1-2 Fc fusion, point mutation #9 D52A (human) (P18627 23-266 D52A): as the sequence (P18627 23-266 G77A) above, with D30A, A55G counted along it

Regarding Fab fragment of 25F7-Lag3.5 analogue, the KD mutant/KD wild type in experiment [1] stood at 1.4 fold; in experiment [2], 1.1 fold; in experiment [3], 1 fold; in experiment [4], 0.8 fold.
